Measured values taken from patent US20130005646A1 (Novo Nordisk, published 2013).
Where two headings read alike, the source gives them in different places. Starred links: 1 amine or outer side, 2 acyl side, 3 side chain; linkers in the order of their positions; H or OH if unused. Positions of bridges follow the written chain, without caps; N, C: chain ends. Non-standard residues stand in square brackets, D forms with d. *: point of attachment. C20 diacid = O=C(O)CCCCCCCCCCCCCCCCCCC(=O)*; C18 diacid = O=C(O)CCCCCCCCCCCCCCCCC(=O)*; γGlu = O=C(O)[C@H](CCC(=O)[*:2])N[*:1]; Orn = NCCC[C@H](N)C(=O)O; AEEA = NCCOCCOCC(=O)O

T1: human amylin 3(a) receptor (human calcitonin receptor with RAMP-3) (human) (UniProt P30988)
T1 sequence (looked up) 1: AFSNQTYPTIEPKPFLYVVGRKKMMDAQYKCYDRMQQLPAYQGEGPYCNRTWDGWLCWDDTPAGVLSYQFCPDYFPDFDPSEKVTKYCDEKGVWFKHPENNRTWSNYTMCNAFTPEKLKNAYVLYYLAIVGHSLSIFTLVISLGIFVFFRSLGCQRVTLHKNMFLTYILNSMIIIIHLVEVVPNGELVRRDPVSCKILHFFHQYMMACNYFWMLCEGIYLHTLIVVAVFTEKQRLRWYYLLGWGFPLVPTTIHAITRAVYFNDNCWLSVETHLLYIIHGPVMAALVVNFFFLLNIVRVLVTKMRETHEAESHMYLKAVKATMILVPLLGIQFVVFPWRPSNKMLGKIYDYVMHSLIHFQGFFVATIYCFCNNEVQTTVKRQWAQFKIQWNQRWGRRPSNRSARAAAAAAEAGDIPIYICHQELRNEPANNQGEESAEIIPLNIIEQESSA
T1 sequence (looked up) 2: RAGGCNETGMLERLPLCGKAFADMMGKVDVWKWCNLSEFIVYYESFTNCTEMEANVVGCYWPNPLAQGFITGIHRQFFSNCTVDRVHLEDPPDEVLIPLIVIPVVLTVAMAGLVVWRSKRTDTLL

T2: human calcitonin (a) receptor (human) (UniProt P30988)
T2 sequence (looked up): T1 sequence (looked up) 1

T3: human amylin 3(a) receptor (human calcitonin receptor + RAMP-3) (human) (UniProt P30988)
T3 sequence (looked up) 1: T1 sequence (looked up) 1
T3 sequence (looked up) 2: T1 sequence (looked up) 2

T4: human amylin 3(a) receptor (human calcitonin receptor co-expressed with RAMP-3) (human) (UniProt P30988)
T4 sequence (looked up) 1: T1 sequence (looked up) 1
T4 sequence (looked up) 2: T1 sequence (looked up) 2

T5: human amylin receptor (human, UniProt P30988 25-474; O60896 24-148, limits assumed)
T5 sequence (looked up) 1: T1 sequence (looked up) 1
T5 sequence (looked up) 2: T1 sequence (looked up) 2

T6: Amylin receptor human (human, UniProt P30988 25-474; O60896 24-148, limits assumed)
T6 sequence (looked up) 1: T1 sequence (looked up) 1
T6 sequence (looked up) 2: T1 sequence (looked up) 2

T7: human amylin 3(a) receptor (human calcitonin receptor co-expressed with RAMP-3) (human, UniProt P30988 25-474; O60896 24-148)
T7 sequence (looked up) 1: T1 sequence (looked up) 1
T7 sequence (looked up) 2: T1 sequence (looked up) 2

B1: N-alpha-(19-carboxynonadecanoyl)-Glu-Glu-Arg-[Glu1,Glu14,His17,Pro37]-pramlintide (peptide)
peptide: {C20 diacid}-EERECNTATCATQRLAEFLHHSSNNFGPILPPTNVGSNTP-NH2
modifications: disulfide 5-10
SMILES: CC[C@H](C)[C@H](NC(=O)[C@@H]1CCCN1C(=O)CNC(=O)[C@H](Cc1ccccc1)NC(=O)[C@H](CC(N)=O)NC(=O)[C@H](CC(N)=O)NC(=O)[C@H](CO)NC(=O)[C@H](CO)NC(=O)[C@H](Cc1c[nH]cn1)NC(=O)[C@H](Cc1c[nH]cn1)NC(=O)[C@H](CC(C)C)NC(=O)[C@H](Cc1ccccc1)NC(=O)[C@H](CCC(=O)O)NC(=O)[C@H](C)NC(=O)[C@H](CC(C)C)NC(=O)[C@H](CCCNC(=N)N)NC(=O)[C@H](CCC(N)=O)NC(=O)[C@@H](NC(=O)[C@H](C)NC(=O)[C@@H]1CSSC[C@H](NC(=O)[C@H](CCC(=O)O)NC(=O)[C@H](CCCNC(=N)N)NC(=O)[C@H](CCC(=O)O)NC(=O)[C@H](CCC(=O)O)NC(=O)CCCCCCCCCCCCCCCCCCC(=O)O)C(=O)N[C@@H](CC(N)=O)C(=O)N[C@@H]([C@@H](C)O)C(=O)N[C@@H](C)C(=O)N[C@@H]([C@@H](C)O)C(=O)N1)[C@@H](C)O)C(=O)N[C@@H](CC(C)C)C(=O)N1CCC[C@H]1C(=O)N1CCC[C@H]1C(=O)N[C@H](C(=O)N[C@@H](CC(N)=O)C(=O)N[C@H](C(=O)NCC(=O)N[C@@H](CO)C(=O)N[C@@H](CC(N)=O)C(=O)N[C@H](C(=O)N1CCC[C@H]1C(N)=O)[C@@H](C)O)C(C)C)[C@@H](C)O

Experiments:
Assay in all cases: cell-based or functional assay
[1] = biological target: T1, human amylin 3(a) receptor (human calcitonin receptor with RAMP-3) (human)
[2] = biological target: T2, human calcitonin (a) receptor (human)
[3] = biological target: T3, human amylin 3(a) receptor (human calcitonin receptor + RAMP-3) (human)
[4] = biological target: T4, human amylin 3(a) receptor (human calcitonin receptor co-expressed with RAMP-3) (human)
[5] = biological target: T4, human amylin 3(a) receptor (human calcitonin receptor co-expressed with RAMP-3) (human); remark: listed apart in the source
[6] = biological target: T5, human amylin receptor
[7] = biological target: T6, Amylin receptor human
[8] = biological target: T7, human amylin 3(a) receptor (human …)

Binder	Amylin receptor human EC50 (pM) [1] [pM]	CTa receptor human EC50 [2] [nM]	CTa receptor human EC50 (pM) [2] [pM]	Amylin receptor human EC50 [3] [nM]	Amylin receptor human EC50 (pM) [4] [pM]	Amylin receptor human EC50 (pM) [5] [pM]	Amylin receptor human EC50 (pM) [6] [pM]	Amylin receptor human EC50 (pM) [7] [pM]	Amylin receptor human EC50 (pM) [8] [pM]
{C20 diacid-γGlu}-SSGSSGCNTATCATQRLAEFLHHSSNNFGPILPPTNVGSNTY-NH2 (disulfide 7-12 (inferred))	253	0.432	432	0.253	253				
{C20 diacid-γGlu}-SSGSSGHCNTATCATQRLAEFLHHSSNNFGPILPPTNVGSNTY-NH2 (disulfide 8-13 (inferred))	306	0.669	669	0.305	306	306			
B1	288	0.443	443	0.288	288	288	288	288	
{C18 diacid-γGlu-AEEA-AEEA}-[dR][dR][Orn]CNTATCATQRLAEFLHRSSNNFGPILPPTNVGSNTY-NH2 (disulfide 4-9 (inferred))									29.5
